Patent US20240018502A1

Biological target: human complement protein C3 (human) (UniProt P01024)
Assay: cell-based or functional assay

Chain of human complement protein C3 (human) (P01024 23-667, chain 1 of 2): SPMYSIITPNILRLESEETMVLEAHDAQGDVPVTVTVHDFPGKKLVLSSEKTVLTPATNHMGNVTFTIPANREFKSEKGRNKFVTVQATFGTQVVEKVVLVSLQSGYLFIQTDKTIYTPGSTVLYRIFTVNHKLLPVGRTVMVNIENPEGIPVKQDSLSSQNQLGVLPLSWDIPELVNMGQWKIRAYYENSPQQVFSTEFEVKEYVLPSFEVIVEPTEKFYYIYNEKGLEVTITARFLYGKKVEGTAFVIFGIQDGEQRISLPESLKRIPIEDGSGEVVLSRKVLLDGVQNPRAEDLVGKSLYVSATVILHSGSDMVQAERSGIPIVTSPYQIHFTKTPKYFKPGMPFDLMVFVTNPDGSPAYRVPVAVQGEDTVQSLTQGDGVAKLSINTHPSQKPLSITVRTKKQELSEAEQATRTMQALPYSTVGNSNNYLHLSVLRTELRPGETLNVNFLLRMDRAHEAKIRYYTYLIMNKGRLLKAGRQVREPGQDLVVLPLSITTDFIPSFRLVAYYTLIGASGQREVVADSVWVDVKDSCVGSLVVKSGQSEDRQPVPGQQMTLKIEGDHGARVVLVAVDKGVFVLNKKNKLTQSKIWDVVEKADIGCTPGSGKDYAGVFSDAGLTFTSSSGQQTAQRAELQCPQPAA
Chain of human complement protein C3 (human) (P01024 672-1663, chain 2 of 2): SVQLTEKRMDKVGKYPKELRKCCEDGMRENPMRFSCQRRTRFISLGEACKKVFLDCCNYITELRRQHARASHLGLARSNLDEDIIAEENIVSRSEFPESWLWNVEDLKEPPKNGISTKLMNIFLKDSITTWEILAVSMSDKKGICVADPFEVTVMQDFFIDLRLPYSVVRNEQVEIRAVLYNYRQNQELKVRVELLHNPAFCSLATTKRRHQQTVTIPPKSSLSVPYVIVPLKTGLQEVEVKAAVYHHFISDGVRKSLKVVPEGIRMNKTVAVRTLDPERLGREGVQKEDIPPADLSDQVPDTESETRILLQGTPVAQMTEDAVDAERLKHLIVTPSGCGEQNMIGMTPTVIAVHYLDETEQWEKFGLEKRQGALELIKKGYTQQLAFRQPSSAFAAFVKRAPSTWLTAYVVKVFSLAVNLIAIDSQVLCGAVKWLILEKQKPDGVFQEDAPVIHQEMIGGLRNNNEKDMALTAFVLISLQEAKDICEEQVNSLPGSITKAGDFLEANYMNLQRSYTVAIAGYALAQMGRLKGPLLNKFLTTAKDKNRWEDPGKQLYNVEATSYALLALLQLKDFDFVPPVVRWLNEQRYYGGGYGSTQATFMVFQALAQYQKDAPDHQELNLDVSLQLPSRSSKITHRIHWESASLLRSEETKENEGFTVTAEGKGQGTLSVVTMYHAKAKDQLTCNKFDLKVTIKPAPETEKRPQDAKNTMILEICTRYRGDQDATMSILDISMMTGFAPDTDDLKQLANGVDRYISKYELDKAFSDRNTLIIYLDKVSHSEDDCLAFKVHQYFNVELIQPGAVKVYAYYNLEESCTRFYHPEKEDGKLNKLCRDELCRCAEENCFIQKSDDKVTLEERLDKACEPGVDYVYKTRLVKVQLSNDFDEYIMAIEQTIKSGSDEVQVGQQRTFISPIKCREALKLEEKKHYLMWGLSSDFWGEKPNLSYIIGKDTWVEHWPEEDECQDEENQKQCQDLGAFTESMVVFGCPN

Binder	EC50 (nM), cleavage of purified hC3 in vitro
Q38H/I41A/D60bV/F60eR/Y60gW/D96P/ins97aN/F97W/T98G/F99L/C122S/G151N/Q175L/Q192D (enzyme) VVGGTDADEGEWPWQVSLHALGHGHACGASLISPNWLVSAAHCYIDVRGRRWSDPTQWTAFLGLHDQSQRSAPGVQERRLKRIISHPFFNPWNGLDYDIALLELEKPAEYSSMVRPISLPDASHVFPAGKAIWVTGWGHTQYGGTNALILQKGEIRVINQTTCENLLPQLITPRMMCVGFLSGGVDSCDGDSGGPLSSVEADGRIFQAGVVSWGDGCAQRNKPGVYTRLPLFRDWIKENTGV	2.54 nM
Q38H/I41S/D60bT/F60eS/Y60gW/D96V/F97G/ins97aV/T98P/F99L/C122S/G151H/Q175L/Q192D (enzyme) VVGGTDADEGEWPWQVSLHALGHGHSCGASLISPNWLVSAAHCYIDTRGSRWSDPTQWTAFLGLHDQSQRSAPGVQERRLKRIISHPFFNVGVPLDYDIALLELEKPAEYSSMVRPISLPDASHVFPAGKAIWVTGWGHTQYGGTHALILQKGEIRVINQTTCENLLPQLITPRMMCVGFLSGGVDSCDGDSGGPLSSVEADGRIFQAGVVSWGDGCAQRNKPGVYTRLPLFRDWIKENTGV	2.85 nM
Q38H/I41S/D60bT/F60eS/Y60gW/D96K/F97G/ins97aV/T98P/F99L/C122S/T150S/G151H/Q175L/Q192D/Q209L (enzyme) VVGGTDADEGEWPWQVSLHALGHGHSCGASLISPNWLVSAAHCYIDTRGSRWSDPTQWTAFLGLHDQSQRSAPGVQERRLKRIISHPFFNKGVPLDYDIALLELEKPAEYSSMVRPISLPDASHVFPAGKAIWVTGWGHTQYGGSHALILQKGEIRVINQTTCENLLPQLITPRMMCVGFLSGGVDSCDGDSGGPLSSVEADGRIFLAGVVSWGDGCAQRNKPGVYTRLPLFRDWIKENTGV	2.88 nM
Q38H/I41A/D60bV/F60eR/Y60gW/D96F/F97S/ins97aH/T98G/F99L/C122S/G151N/Q175L/Q192G (enzyme) VVGGTDADEGEWPWQVSLHALGHGHACGASLISPNWLVSAAHCYIDVRGRRWSDPTQWTAFLGLHDQSQRSAPGVQERRLKRIISHPFFNFSHGLDYDIALLELEKPAEYSSMVRPISLPDASHVFPAGKAIWVTGWGHTQYGGTNALILQKGEIRVINQTTCENLLPQLITPRMMCVGFLSGGVDSCGGDSGGPLSSVEADGRIFQAGVVSWGDGCAQRNKPGVYTRLPLFRDWIKENTGV	3.14 nM
Q38H/I41S/D60bT/F60eS/Y60gW/D96F/F97Y/ins97aD/T98G/F99L/C122S/G151H/Q175L/Q192D (enzyme) VVGGTDADEGEWPWQVSLHALGHGHSCGASLISPNWLVSAAHCYIDTRGSRWSDPTQWTAFLGLHDQSQRSAPGVQERRLKRIISHPFFNFYDGLDYDIALLELEKPAEYSSMVRPISLPDASHVFPAGKAIWVTGWGHTQYGGTHALILQKGEIRVINQTTCENLLPQLITPRMMCVGFLSGGVDSCDGDSGGPLSSVEADGRIFQAGVVSWGDGCAQRNKPGVYTRLPLFRDWIKENTGV	3.13 nM
H40R/I41H/F97D/F99L/C122S/Q175M/Q192G/D217V/K224Y (enzyme) VVGGTDADEGEWPWQVSLHALGQGRHCGASLISPNWLVSAAHCYIDDRGFRYSDPTQWTAFLGLHDQSQRSAPGVQERRLKRIISHPFFNDDTLDYDIALLELEKPAEYSSMVRPISLPDASHVFPAGKAIWVTGWGHTQYGGTGALILQKGEIRVINQTTCENLLPQMITPRMMCVGFLSGGVDSCGGDSGGPLSSVEADGRIFQAGVVSWGVGCAQRNYPGVYTRLPLFRDWIKENTGV	2.76 nM
I41S/F99L/C122S/G151N/Q175M/Q192G/D217V (enzyme) VVGGTDADEGEWPWQVSLHALGQGHSCGASLISPNWLVSAAHCYIDDRGFRYSDPTQWTAFLGLHDQSQRSAPGVQERRLKRIISHPFFNDFTLDYDIALLELEKPAEYSSMVRPISLPDASHVFPAGKAIWVTGWGHTQYGGTNALILQKGEIRVINQTTCENLLPQMITPRMMCVGFLSGGVDSCGGDSGGPLSSVEADGRIFQAGVVSWGVGCAQRNKPGVYTRLPLFRDWIKENTGV	3.19 nM
I41G/F97I/F99L/C122S/G151L/Q175M/Q192S/D217V (enzyme) VVGGTDADEGEWPWQVSLHALGQGHGCGASLISPNWLVSAAHCYIDDRGFRYSDPTQWTAFLGLHDQSQRSAPGVQERRLKRIISHPFFNDITLDYDIALLELEKPAEYSSMVRPISLPDASHVFPAGKAIWVTGWGHTQYGGTLALILQKGEIRVINQTTCENLLPQMITPRMMCVGFLSGGVDSCSGDSGGPLSSVEADGRIFQAGVVSWGVGCAQRNKPGVYTRLPLFRDWIKENTGV	2.84 nM
Q38H/I41A/D60bV/F60eR/Y60gW/D96I/F97N/T98G/F99L/C122S/G151H/Q175L/Q192D (enzyme) VVGGTDADEGEWPWQVSLHALGHGHACGASLISPNWLVSAAHCYIDVRGRRWSDPTQWTAFLGLHDQSQRSAPGVQERRLKRIISHPFFNINGLDYDIALLELEKPAEYSSMVRPISLPDASHVFPAGKAIWVTGWGHTQYGGTHALILQKGEIRVINQTTCENLLPQLITPRMMCVGFLSGGVDSCDGDSGGPLSSVEADGRIFQAGVVSWGDGCAQRNKPGVYTRLPLFRDWIKENTGV	2.52 nM
Q38H/I41S/D60bS/ins97aV/F97D/T98P/F99L/M117L/C122S/I136T/Q192G/D217I (enzyme) VVGGTDADEGEWPWQVSLHALGHGHSCGASLISPNWLVSAAHCYIDSRGFRYSDPTQWTAFLGLHDQSQRSAPGVQERRLKRIISHPFFNDDVPLDYDIALLELEKPAEYSSLVRPISLPDASHVFPAGKATWVTGWGHTQYGGTGALILQKGEIRVINQTTCENLLPQQITPRMMCVGFLSGGVDSCGGDSGGPLSSVEADGRIFQAGVVSWGIGCAQRNKPGVYTRLPLFRDWIKENTGV	2.43 nM
Q38R/I41S/D60bY/F60eD/ins97aV/F97D/T98P/F99L/C122S/G151N/Q175M/Q192A (enzyme) VVGGTDADEGEWPWQVSLHALGRGHSCGASLISPNWLVSAAHCYIDYRGDRYSDPTQWTAFLGLHDQSQRSAPGVQERRLKRIISHPFFNDDVPLDYDIALLELEKPAEYSSMVRPISLPDASHVFPAGKAIWVTGWGHTQYGGTNALILQKGEIRVINQTTCENLLPQMITPRMMCVGFLSGGVDSCAGDSGGPLSSVEADGRIFQAGVVSWGDGCAQRNKPGVYTRLPLFRDWIKENTGV	3.22 nM
I41T/D60bW/F60eH/F97D/ins97aV/T98P/F99L/C122S/G151N/Q175L/Q192G (enzyme) VVGGTDADEGEWPWQVSLHALGQGHTCGASLISPNWLVSAAHCYIDWRGHRYSDPTQWTAFLGLHDQSQRSAPGVQERRLKRIISHPFFNDDVPLDYDIALLELEKPAEYSSMVRPISLPDASHVFPAGKAIWVTGWGHTQYGGTNALILQKGEIRVINQTTCENLLPQLITPRMMCVGFLSGGVDSCGGDSGGPLSSVEADGRIFQAGVVSWGDGCAQRNKPGVYTRLPLFRDWIKENTGV	3.1 nM
Q38H/I41A/D60bW/ins97aV/F97D/T98P/F99L/C122S/I136M/Q192G/D217N (enzyme) VVGGTDADEGEWPWQVSLHALGHGHACGASLISPNWLVSAAHCYIDWRGFRYSDPTQWTAFLGLHDQSQRSAPGVQERRLKRIISHPFFNDDVPLDYDIALLELEKPAEYSSMVRPISLPDASHVFPAGKAMWVTGWGHTQYGGTGALILQKGEIRVINQTTCENLLPQQITPRMMCVGFLSGGVDSCGGDSGGPLSSVEADGRIFQAGVVSWGNGCAQRNKPGVYTRLPLFRDWIKENTGV	3.06 nM
Q38H/I41S/D60bT/F60eS/Y60gW/ins97aV/T98P/F99L/C122S/G151H/Q175L/Q192E (enzyme) VVGGTDADEGEWPWQVSLHALGHGHSCGASLISPNWLVSAAHCYIDTRGSRWSDPTQWTAFLGLHDQSQRSAPGVQERRLKRIISHPFFNDFVPLDYDIALLELEKPAEYSSMVRPISLPDASHVFPAGKAIWVTGWGHTQYGGTHALILQKGEIRVINQTTCENLLPQLITPRMMCVGFLSGGVDSCEGDSGGPLSSVEADGRIFQAGVVSWGDGCAQRNKPGVYTRLPLFRDWIKENTGV	3.19 nM

Continued, values first:

EC50 (nM), cleavage of purified hC3 in vitro	Binder
3.09 nM	Q38H/I41A/F60eH/Y60gW/ins97aE/F97T/T98G/F99L/C122S/Q175L/Q192A (enzyme) VVGGTDADEGEWPWQVSLHALGHGHACGASLISPNWLVSAAHCYIDDRGHRWSDPTQWTAFLGLHDQSQRSAPGVQERRLKRIISHPFFNDTEGLDYDIALLELEKPAEYSSMVRPISLPDASHVFPAGKAIWVTGWGHTQYGGTGALILQKGEIRVINQTTCENLLPQLITPRMMCVGFLSGGVDSCAGDSGGPLSSVEADGRIFQAGVVSWGDGCAQRNKPGVYTRLPLFRDWIKENTGV
2.71 nM	Q38H/I41A/D60bT/F60eK/Y60gW/F97T/ins97aE/T98G/F99L/C122S/Q175L/Q192A (enzyme) VVGGTDADEGEWPWQVSLHALGHGHACGASLISPNWLVSAAHCYIDTRGKRWSDPTQWTAFLGLHDQSQRSAPGVQERRLKRIISHPFFNDTEGLDYDIALLELEKPAEYSSMVRPISLPDASHVFPAGKAIWVTGWGHTQYGGTGALILQKGEIRVINQTTCENLLPQLITPRMMCVGFLSGGVDSCAGDSGGPLSSVEADGRIFQAGVVSWGDGCAQRNKPGVYTRLPLFRDWIKENTGV
2.91 nM	Q38H/I41A/D60bV/F60eI/Y60gW/F97T/ins97aE/T98G/F99L/C122S/G151N/Q175L/Q192D (enzyme) VVGGTDADEGEWPWQVSLHALGHGHACGASLISPNWLVSAAHCYIDVRGIRWSDPTQWTAFLGLHDQSQRSAPGVQERRLKRIISHPFFNDTEGLDYDIALLELEKPAEYSSMVRPISLPDASHVFPAGKAIWVTGWGHTQYGGTNALILQKGEIRVINQTTCENLLPQLITPRMMCVGFLSGGVDSCDGDSGGPLSSVEADGRIFQAGVVSWGDGCAQRNKPGVYTRLPLFRDWIKENTGV
3.08 nM	Q38Y/I41S/D60bT/Y60gW/D96M/F97N/T98G/F99L/C122S/G151N/Q175L/Q192D (enzyme) VVGGTDADEGEWPWQVSLHALGYGHSCGASLISPNWLVSAAHCYIDTRGFRWSDPTQWTAFLGLHDQSQRSAPGVQERRLKRIISHPFFNMNGLDYDIALLELEKPAEYSSMVRPISLPDASHVFPAGKAIWVTGWGHTQYGGTNALILQKGEIRVINQTTCENLLPQLITPRMMCVGFLSGGVDSCDGDSGGPLSSVEADGRIFQAGVVSWGDGCAQRNKPGVYTRLPLFRDWIKENTGV
3.04 nM	Q38H/I41S/D60bT/F60eS/Y60gW/D96I/F97N/T98G/F99L/C122S/G151N/Q175L/Q192D (enzyme) VVGGTDADEGEWPWQVSLHALGHGHSCGASLISPNWLVSAAHCYIDTRGSRWSDPTQWTAFLGLHDQSQRSAPGVQERRLKRIISHPFFNINGLDYDIALLELEKPAEYSSMVRPISLPDASHVFPAGKAIWVTGWGHTQYGGTNALILQKGEIRVINQTTCENLLPQLITPRMMCVGFLSGGVDSCDGDSGGPLSSVEADGRIFQAGVVSWGDGCAQRNKPGVYTRLPLFRDWIKENTGV
3.07 nM	Q38H/I41S/D60bF/F60eT/ins97aV/F97D/T98P/F99L/C122S/H143Q/G151N/Q175L/Q192G (enzyme) VVGGTDADEGEWPWQVSLHALGHGHSCGASLISPNWLVSAAHCYIDFRGTRYSDPTQWTAFLGLHDQSQRSAPGVQERRLKRIISHPFFNDDVPLDYDIALLELEKPAEYSSMVRPISLPDASHVFPAGKAIWVTGWGQTQYGGTNALILQKGEIRVINQTTCENLLPQLITPRMMCVGFLSGGVDSCGGDSGGPLSSVEADGRIFQAGVVSWGDGCAQRNKPGVYTRLPLFRDWIKENTGV
